In this test the target is ϕC31 integrase^S12A-RDF fusion protein (Streptomyces phage ϕC31) (UniProt Q9T221). Nature of the test: SEC-MALS.

As to “ϕC31 integrase^S12A-RDF fusion protein (from UniProt Q9T221 1-605)”, the stoichiometry N is 4.

The values above are taken from doi:10.1101/2025.05.02.651858.
